Measured values published in PMC8377413.
pKd: −log10 of the molar value.

Experiments:
[1] = target: OsPPR676 (recombinant, Expi293) (rice); assay: MST; Monolith NT.115; 100 nM target protein labelled with His-Tag Labeling Kit RED-tris-NTA 2nd generation, serial dilutions of unlabelled ligand; PBS with 0.05% Tween 20; 35% MST power, 60% LED power, 24°C
[2] = target: Osj10gBTF3 (recombinant, Expi293) (rice); assay: as above

Row | pKd [1] | pKd [2] | Substance
1 | 4.82 | 5.01 | OsCpn60 (recombinant, Expi293) (natural protein)
2 |  | 4.61 | OsPPR676 (recombinant, Expi293) (natural protein)
